B1: CAPcons (consensus, pure; CAPcons_C, top 5G) (dsDNA)
DNA 1: GGCAGTGAGCTCTACGCAATAAATGTGATCTAGATCACATTTTAGGCAC
DNA 2: GTGCCTAAAATGTGATCTAGATCACATTTATTGCGTAGAGCTCACTGCC
B2: CAPcons position 5 C:G variant (pure; CAPcons_G) (dsDNA)
DNA 1: B1 DNA 1 with G25C
DNA 2: B1 DNA 2 with C25G
B3: CAPcons library member CAPcons_T (top 5A; table letter taken as bottom-strand base) (dsDNA)
DNA 1: B1 DNA 1 with G25A
DNA 2: B1 DNA 2 with C25T
B4: CAPcons library member CAPcons_A (top 5T; table letter taken as bottom-strand base) (dsDNA)
DNA 1: B1 DNA 1 with G25T
DNA 2: B1 DNA 2 with C25A
B5: CAPcons library member CAPcons_C (consensus, top 5G) (dsDNA)
DNA 1: B1 DNA 1
DNA 2: B1 DNA 2
B6: CAPcons library member CAPcons_G (top 5C) (dsDNA)
DNA 1: B1 DNA 1 with G25C
DNA 2: B1 DNA 2 with C25G

Where a chain is given by its changes, count along the chain named.

The first data set concerns the target T1, Alexa647-CAP (CAP-(Cys17;Ser178), catabolite activator protein) (Escherichia coli, UniProt P0ACJ8 1-210, H18C;C179S). In words: single-molecule fluorescence (koff/kon); 0.2 mM cAMP, 10 mM Mg2+; 40 mM Tris pH 8, 100 mM KCl, 10 mM MgCl2, 5% glycerol, 0.2 mM cAMP, 1 mM TROLOX, glucose oxidase/catalase; 1.25 nM (pure) or 2.5 nM (library) Alexa647-CAP; temperature not stated. The settings on record: protein: recombinant; tags: His6; Alexa647 maleimide (40% labelled); chain copies: 2; label: Cy3B at top position 13; 5' biotin on bottom strand; blunt.
The term Kd denotes the free concentration of one partner at which half of the binding sites on the other are occupied at equilibrium, for simple one-to-one binding. Turning to B1, the Kd is 9.1 ± 0.6 nM.

Consider B2, for which the Kd worked out at 20.2 ± 1.3 nM.

Another data set deals with T1, Alexa647-CAP (CAP-(Cys17;Ser178), …). The data set is described as follows: single-molecule fluorescence (SPIN-Seq library); 0.2 mM cAMP, 10 mM Mg2+; 40 mM Tris pH 8, 100 mM KCl, 10 mM MgCl2, 5% glycerol, 0.2 mM cAMP, 1 mM TROLOX, glucose oxidase/catalase; 1.25 nM (pure) or 2.5 nM (library) Alexa647-CAP; temperature not stated. The settings on record: protein: recombinant; tags: His6; Alexa647 maleimide (40% labelled); chain copies: 2; label: Cy3B at top position 11; 5' biotin on bottom strand; blunt.
Consider B3, for which the dissociation constant (Kd) was determined as 24.4 ± 0.8 nM.

As for B4, the Kd stood at 29.1 ± 1.6 nM.

On to B5, for which the Kd was found to be 10.6 ± 0.6 nM.

As for B6, the Kd turned out to be 20.1 ± 0.9 nM.

The values are drawn from PMC13649778, “Unraveling single-molecule reactions via multiplexed in-situ DNA sequencing”.
